Assay results as given in patent US12479895B2, “C-terminal CDNF and MANF fragments, pharmaceutical compositions comprising same and uses thereof” (MyNeuroCure Oy, priority 2018, dated 2025).

How the values were obtained:
[1] = tested on: rat model of cerebral ischemia; test: Distal occlusion of the middle cerebral artery as a model of cerebral stroke; assay type: in vivo
Method: Male Sprague Dawley rats (weight 230-270 g, Envigo, Netherlands) were used for the experiments which were conducted according to the 3R principles of EU directive 2010/63/EU on the care and use of experimental animals, local laws and regulations, and were approved by the national Animal Experiment Board of Finland All experiments were performed in a blinded manner and the rats were assigned to different treatment groups randomly. Rats were anesthesized with chloral hydrate (0.4 g/kg, i.p). A cortical stroke was induced by occluding the distal middle cerebral artery (dMCA) together with a bilateral common carotid artery (CCA) occlusion for 60 min as described previously (Chen, et al., 1986). Briefly, the bilateral CCAs were identified and isolated through a ventral midline cervical incision. Rats were placed in stereotaxic apparatus and a craniotomy was made in the right hemisphere. The right (MCA) was ligated with a 10-0 suture and bilateral common carotids (CCA) were ligated with non-traumatic arterial clamps for 60 minutes. […]
To test the neuroprotective effect of subcutaneous C-CDNF, 50 μg of C-CDNF was given 30-50 min before dMCA occlusion and immediately after reperfusion in volume of 100 μl s.c. Phosphate-buffered saline (PBS) was used as vehicle control. […] The area of infarction in each slice was measured with a digital scanner and ImageJ software. […]

[2] = tested on: dopamine neurons; test: Survival of TH-positive dopamine neurons in dissociated midbrain floor cultures; assay type: cell-based, mouse; details: for survived neurons as % compared to neurons grown in the presence of GDNF: Table 3A (FIG. 15); for survived neurons as % compared to neurons grown in the presence of GDNF / protection of dopaminergic neurons in culture (result in words): 5 days; for Fold change of survived neurons compared to neurons grown without growth factors: data of Table 3 divided by values of no factor; for protection of dopaminergic neurons in culture (result in words): added to the culture medium, TH-positive neurons counted
Outline: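 Dissociated E13.5 NMRI mouse midbrain floor neurons grown five days in DMEM/F12 with N2, with polypeptides at a range of concentrations, GDNF (100 ng/ml), or nothing. TH-immunopositive neurons were counted by imaging. Values are a percentage of GDNF-maintained TH-positive neurons, as mean ± SEM from at least three independent cultures.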

B1: KYEKTLDLASVDLRKMRVAELKQILHSWGEECRACAEKTDYVNLIQELAPKYAATHPKTEL (peptide, listed as Homo sapiens)
chain: KYEKTLDLASVDLRKMRVAELKQILHSWGEECRACAEKTDYVNLIQELAPKYAATHPKTEL
- infarction volume (rostral part of the cerebral cortex) ([1]; 50 μg s.c. 30-50 minutes before dMCA occlusion and right after reperfusion, p<0.05 vs PBS): decreases
- smaller lesions than the vehicle treated rats ([1]; 50 μg s.c. before dMCA occlusion and right after reperfusion, n=8-9): about 50%
- survived neurons as % compared to neurons grown in the presence of GDNF ([2]; AVG, 1 ng/ml): 63.97 % GDNF
- survived neurons as % compared to neurons grown in the presence of GDNF ([2]; AVG, 10 ng/ml): 80.69 % GDNF
- survived neurons as % compared to neurons grown in the presence of GDNF ([2]; AVG, 100 ng/ml): 77.02 % GDNF
- survived neurons as % compared to neurons grown in the presence of GDNF ([2]; AVG, 1000 ng/ml): 70.02 % GDNF
- survived neurons as % compared to neurons grown in the presence of GDNF ([2]; exp1, 1 ng/ml): 62.96 % GDNF
- survived neurons as % compared to neurons grown in the presence of GDNF ([2]; exp1, 10 ng/ml): 81.68 % GDNF
- survived neurons as % compared to neurons grown in the presence of GDNF ([2]; exp1, 100 ng/ml): 91.48 % GDNF
- survived neurons as % compared to neurons grown in the presence of GDNF ([2]; exp1, 1000 ng/ml): 75.02 % GDNF
- survived neurons as % compared to neurons grown in the presence of GDNF ([2]; exp2, 1 ng/ml): 67.36 % GDNF
- survived neurons as % compared to neurons grown in the presence of GDNF ([2]; exp2, 10 ng/ml): 80.97 % GDNF
- survived neurons as % compared to neurons grown in the presence of GDNF ([2]; exp2, 100 ng/ml): 65.28 % GDNF
- survived neurons as % compared to neurons grown in the presence of GDNF ([2]; exp2, 1000 ng/ml): 61.07 % GDNF
- survived neurons as % compared to neurons grown in the presence of GDNF ([2]; exp3, 1 ng/ml): 61.59 % GDNF
- survived neurons as % compared to neurons grown in the presence of GDNF ([2]; exp3, 10 ng/ml): 79.42 % GDNF
- survived neurons as % compared to neurons grown in the presence of GDNF ([2]; exp3, 100 ng/ml): 74.30 % GDNF
- survived neurons as % compared to neurons grown in the presence of GDNF ([2]; exp3, 1000 ng/ml): 73.98 % GDNF
- Fold change of survived neurons compared to neurons grown without growth factors ([2]; Table 4, AVG, 1 ng/ml): 1.04 fold
- Fold change of survived neurons compared to neurons grown without growth factors ([2]; Table 4, AVG, 10 ng/ml): 1.31 fold
- Fold change of survived neurons compared to neurons grown without growth factors ([2]; Table 4, AVG, 100 ng/ml): 1.26 fold
- Fold change of survived neurons compared to neurons grown without growth factors ([2]; Table 4, AVG, 1000 ng/ml): 1.14 fold
- Fold change of survived neurons compared to neurons grown without growth factors ([2]; Table 4, exp1, 1 ng/ml): 1.10 fold
- Fold change of survived neurons compared to neurons grown without growth factors ([2]; Table 4, exp1, 10 ng/ml): 1.43 fold
- Fold change of survived neurons compared to neurons grown without growth factors ([2]; Table 4, exp1, 100 ng/ml): 1.60 fold
- Fold change of survived neurons compared to neurons grown without growth factors ([2]; Table 4, exp1, 1000 ng/ml): 1.31 fold
- Fold change of survived neurons compared to neurons grown without growth factors ([2]; Table 4, exp2, 1 ng/ml): 1.07 fold
- Fold change of survived neurons compared to neurons grown without growth factors ([2]; Table 4, exp2, 10 ng/ml): 1.28 fold
- Fold change of survived neurons compared to neurons grown without growth factors ([2]; Table 4, exp2, 100 ng/ml): 1.04 fold
- Fold change of survived neurons compared to neurons grown without growth factors ([2]; Table 4, exp2, 1000 ng/ml): 0.97 fold
- Fold change of survived neurons compared to neurons grown without growth factors ([2]; Table 4, exp3, 1 ng/ml): 0.95 fold
- Fold change of survived neurons compared to neurons grown without growth factors ([2]; Table 4, exp3, 10 ng/ml): 1.23 fold
- Fold change of survived neurons compared to neurons grown without growth factors ([2]; Table 4, exp3, 100 ng/ml): 1.15 fold
- Fold change of survived neurons compared to neurons grown without growth factors ([2]; Table 4, exp3, 1000 ng/ml): 1.14 fold
- protection of dopaminergic neurons in culture (result in words) [2]: protects
- protection of dopaminergic neurons in culture (result in words) ([2]; listed as C-terminal CDNF fragment): potently protected
